# Experimental data taken from FireProtDB (doi:10.1016/0022-2836(81)90253-9).
# Settings: Sus scrofa, Thermal, DSC, reversible: yes, whole UniProt chain shown
# [1] = pH 6.5, sodium phosphate 5 mM, NaCl 100 mM
# [2] = pH 7.1, sodium phosphate 5 mM, NaCl 100 mM
protein,measurement,setting,value
"Gastricsin wild type, P30879 (protein) SVIKVPLKKLKSIRQAMKEKGLLEEFLKTHKYDPAQRYRIGDISVALEPMAYLEAAYFGEISIGTPPQNFLVL",Tm,"pH 6, sodium cacodylate 5 mM",66 °C
same,unfolding enthalpy (calorimetric),"pH 6, sodium cacodylate 5 mM",271 kcal/mol
same,unfolding enthalpy (van 't Hoff),"pH 6, sodium cacodylate 5 mM",174 kcal/mol
same,Tm,[1],64.5 °C
same,unfolding enthalpy (calorimetric),[1],256 kcal/mol
same,unfolding enthalpy (van 't Hoff),[1],131 kcal/mol
same,Tm,"pH 6.5, sodium phosphate 5 mM",61 °C
same,unfolding enthalpy (calorimetric),"pH 6.5, sodium phosphate 5 mM",240 kcal/mol
same,unfolding enthalpy (van 't Hoff),"pH 6.5, sodium phosphate 5 mM",125 kcal/mol
same,Tm,[2],56.3 °C
same,unfolding enthalpy (calorimetric),[2],202 kcal/mol
same,unfolding enthalpy (van 't Hoff),[2],143 kcal/mol
